Values quoted from earlier work as cited in article PMC8625919.
Several values for one entry are separate records, joined by “and”; a condition that tells them apart may be missing. Equal values may be shown once. One block for each substance: values may come before it.

Tests used:
[1] = target: Neuropilin-1 (Homo sapiens) (UniProt O14786); test: ELISA type assay with AP-VEGF164
[2] = target: VEGFR-2D2-3 D2-3 (Homo sapiens) (UniProt P35968); test: ITC
[3] = target: VEGFR-2D2-3 D2-3 (Homo sapiens) (UniProt P35968); test: SPR
VEGFR-2 (Homo sapiens) = VEGFR-2 (Homo sapiens) (UniProt P35968)
[4] = target: VEGFR-1D1-3 D1-3 (Homo sapiens) (UniProt P17948); test: ITC
[5] = target: VEGFR-1D1-7 D1-7 (Homo sapiens) (UniProt P17948); test: ITC
[6] = target: VEGFR-3 D1-2 (Homo sapiens) (UniProt P35916)
[7] = target: VEGFR-3D1-2 D1-2 (Homo sapiens) (UniProt P35916); test: ITC
[8] = target: VEGFR-3D1-5 D1-5 (Homo sapiens) (UniProt P35916); test: ITC
[9] = target: VEGFR-3D1-3 D1-3 (Homo sapiens) (UniProt P35916); test: ITC
[10] = target: VEGFR-3 D1-5 (Homo sapiens) (UniProt P35916)
[11] = target: VEGFR-3 D1-3 (Homo sapiens) (UniProt P35916)

UniProt O14786, sequence (O14786 22-923): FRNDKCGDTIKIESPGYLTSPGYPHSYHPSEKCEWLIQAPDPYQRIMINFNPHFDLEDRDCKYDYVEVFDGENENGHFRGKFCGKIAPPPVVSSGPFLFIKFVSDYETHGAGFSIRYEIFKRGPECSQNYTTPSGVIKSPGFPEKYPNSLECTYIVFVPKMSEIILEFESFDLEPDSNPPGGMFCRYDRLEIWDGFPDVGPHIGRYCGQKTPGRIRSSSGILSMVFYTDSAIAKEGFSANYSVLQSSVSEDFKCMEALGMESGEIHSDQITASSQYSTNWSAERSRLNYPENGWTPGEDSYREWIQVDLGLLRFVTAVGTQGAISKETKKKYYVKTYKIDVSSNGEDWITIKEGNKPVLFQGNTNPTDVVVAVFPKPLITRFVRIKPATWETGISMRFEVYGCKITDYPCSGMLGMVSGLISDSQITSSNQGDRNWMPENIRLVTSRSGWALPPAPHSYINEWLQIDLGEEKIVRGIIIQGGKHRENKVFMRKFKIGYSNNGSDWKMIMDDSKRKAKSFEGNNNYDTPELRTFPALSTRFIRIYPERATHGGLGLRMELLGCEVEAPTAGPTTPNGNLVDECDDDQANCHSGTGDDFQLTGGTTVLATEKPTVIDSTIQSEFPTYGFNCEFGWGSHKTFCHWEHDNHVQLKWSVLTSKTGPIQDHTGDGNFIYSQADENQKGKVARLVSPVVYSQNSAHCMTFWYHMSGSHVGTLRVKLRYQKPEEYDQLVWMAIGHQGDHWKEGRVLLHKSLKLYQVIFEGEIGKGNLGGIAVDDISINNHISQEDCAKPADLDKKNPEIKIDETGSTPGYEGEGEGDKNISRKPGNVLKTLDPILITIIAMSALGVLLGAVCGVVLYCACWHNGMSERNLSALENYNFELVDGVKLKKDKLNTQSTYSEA

Kd [1]: 3 nM
Substance: VEGF164 (from UniProt Q00731)

Kd [2]: 170 nM and 18 nM
Kd [3]: 36.7 nM
Substance: VEGF165 (from UniProt P15692)

Kd (VEGFR-2 (Homo sapiens)): 0.113 nM
Kd [4]: 47 nM
Kd [5]: 1.7 nM
Substance: VEGF-A (from UniProt P15692)

Kd [6]: 250 nM
Kd [2]: 16 nM
Kd [7]: 250 nM
Kd [8]: 3.7 nM
Kd [9]: 140 nM
Kd [3]: 18.2 nM
Kd [10]: 3.7 nM
Kd [11]: 140 nM
Substance: VEGF-C (from UniProt P49767)
